Source: patent US10064928B2, “Peptides and combination of peptides for use in immunotherapy against CLL and other cancers” (IMMATICS BIOTECHNOLOGIES GMBH, priority 2015, dated 2018)

Target: HLA-A*02:01 (Homo sapiens, UniProt P04439, D140Y/D185E/D98H/E176V/E277Q/G131W/G231S/I119V/I121R/I166T/I218V/L300P/L318F/N151K/N90K/P208A/P217A/Q86G/Q94H/R138H/R169H/T345S)
Assay: MHC binding assay (UV-ligand exchange, beta2m ELISA)
Details: binding of HLA-class I restricted peptides to HLA-A*02:01, β2m ELISA
Summary of the method: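 Peptide–MHC complexes formed by UV-ligand exchange, cleaving a UV-sensitive peptide so the test peptide can bind. Exchange yield measured by ELISA: complexes captured on streptavidin-coated wells, diluted 100-fold, detected with HRP anti-β2m (1 h, 37 °C) and TMB at 450 nm, against refolded HLA-A*02:01/MLA-001 standards (15-500 ng/ml).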

Peptide Exchange (MHC class I binding score, peptide exchange yield)	Substance
“+” (≥10% = +)	130 (LLVLIPVYL; listed as Homo sapiens) [compound 130]
“+++” (≥50 = +++)	39 (FLDALLTDV; listed as Homo sapiens) [compound 39]
“+++” (≥50 = +++)	198 (YLTFLPAEV; listed as Homo sapiens) [compound 198]
“++++” (≥75% = ++++)	85 (HLMLHTAAL; listed as Homo sapiens) [compound 85]
“++” (≥20% = ++)	95 (ILGYMAHEHKV; listed as Homo sapiens) [compound 95]
“+++” (≥50 = +++)	190 (VVMGTVPRL; listed as Homo sapiens) [compound 190]
“+++” (≥50 = +++)	120 (AIDAALTSV; listed as Homo sapiens) [compound 120]
“+++” (≥50 = +++)	171 (TLVPPAALISI; listed as Homo sapiens) [compound 171]
“+++” (≥50 = +++)	50 (FLFEPVVKAFL; listed as Homo sapiens) [compound 50]
“+” (≥10% = +)	68 (GLDQQFAGLDL; listed as Homo sapiens) [compound 68]
“+++” (≥50 = +++)	358 (FLTDYLNDL; listed as Homo sapiens) [compound 358]
“+++” (≥50 = +++)	203 (ALLSSQLAL; listed as Homo sapiens) [compound 203]
“+++” (≥50 = +++)	116 (LLIGATMQV; listed as Homo sapiens) [compound 116]
“+++” (≥50 = +++)	35 (FILPSSLYL; listed as Homo sapiens) [compound 35]
“+++” (≥50 = +++)	254 (QLIPKLIFL; listed as Homo sapiens) [compound 254]
“+++” (≥50 = +++)	367 (NLWSLVAKV; listed as Homo sapiens) [compound 367]
“+++” (≥50 = +++)	236 (GLLESGRHYL; listed as Homo sapiens) [compound 236]
“+++” (≥50 = +++)	293 (ALDIMIPMV; listed as Homo sapiens) [compound 293]
“+++” (≥50 = +++)	107 (ILYNLYDLL; listed as Homo sapiens) [compound 107]
“+++” (≥50 = +++)	19 (QVMEKLAAV; listed as Homo sapiens) [compound 19]
“++++” (≥75% = ++++)	187 (VMDTHLVNI; listed as Homo sapiens) [compound 187]
“+++” (≥50 = +++)	44 (FLLSINDFL; listed as Homo sapiens) [compound 44]
“++++” (≥75% = ++++)	336 (YMAVTTQEV; listed as Homo sapiens) [compound 336]

Peptide Exchange (MHC class I binding score, peptide exchange yield)	Substance
“+++” (≥50 = +++)	331 (VLWELAHLPTL; listed as Homo sapiens) [compound 331]
“+++” (≥50 = +++)	312 (LLYNSTDPTL; listed as Homo sapiens) [compound 312]
“+++” (≥50 = +++)	272 (VLDELPPLI; listed as Homo sapiens) [compound 272]
“+++” (≥50 = +++)	341 (LLAELPASVHA; listed as Homo sapiens) [compound 341]
“+++” (≥50 = +++)	34 (YLPYIFPNI; listed as Homo sapiens) [compound 34]
“+++” (≥50 = +++)	13 (VVDGMPPGV; listed as Homo sapiens) [compound 13]
“+++” (≥50 = +++)	178 (VLFFNVQEV; listed as Homo sapiens) [compound 178]
“+++” (≥50 = +++)	153 (SLLAELHVL; listed as Homo sapiens) [compound 153]
“+++” (≥50 = +++)	110 (LLFDHLEPMEL; listed as Homo sapiens) [compound 110]
“+++” (≥50 = +++)	261 (SLVEAQGWLV; listed as Homo sapiens) [compound 261]
“++” (≥20% = ++)	188 (VMGDIPAAV; listed as Homo sapiens) [compound 188]
“+++” (≥50 = +++)	321 (RLLEFELAQL; listed as Homo sapiens) [compound 321]
“+++” (≥50 = +++)	319 (QVIPQLQTV; listed as Homo sapiens) [compound 319]
“++” (≥20% = ++)	136 (NLDKLWTLV; listed as Homo sapiens) [compound 136]
“+++” (≥50 = +++)	63 (SLAHVAGCEL; listed as Homo sapiens) [compound 63]
“+++” (≥50 = +++)	230 (FLQDSKVIFV; listed as Homo sapiens) [compound 230]
“+++” (≥50 = +++)	288 (GLAESTGLLAV; listed as Homo sapiens) [compound 288]
“+++” (≥50 = +++)	70 (FVPDTPVGV; listed as Homo sapiens) [compound 70]
“+++” (≥50 = +++)	297 (FLVEPQEDTRL; listed as Homo sapiens) [compound 297]
“+++” (≥50 = +++)	45 (FLPELPADLEA; listed as Homo sapiens) [compound 45]
“++++” (≥75% = ++++)	326 (VLAFLVHEL; listed as Homo sapiens) [compound 326]
“+++” (≥50 = +++)	158 (SLPEAPLDV; listed as Homo sapiens) [compound 158]
“+++” (≥50 = +++)	242 (ILLGIQELL; listed as Homo sapiens) [compound 242]

Peptide Exchange (MHC class I binding score, peptide exchange yield)	Substance
“++” (≥20% = ++)	353 (ATPMPTPSV; listed as Homo sapiens) [compound 353]
“++++” (≥75% = ++++)	51 (FLVEAPHDWDL; listed as Homo sapiens) [compound 51]
“+++” (≥50 = +++)	375 (VLWFKPVEL; listed as Homo sapiens) [compound 375]
“+++” (≥50 = +++)	241 (ILGDILLKV; listed as Homo sapiens) [compound 241]
“+++” (≥50 = +++)	244 (ILQALAVHL; listed as Homo sapiens) [compound 244]
“+++” (≥50 = +++)	167 (TLDTSKLYV; listed as Homo sapiens) [compound 167]
“+++” (≥50 = +++)	88 (ILDEIGADVQA; listed as Homo sapiens) [compound 88]
“+++” (≥50 = +++)	127 (LLPTAPTTV; listed as Homo sapiens) [compound 127]
“+++” (≥50 = +++)	262 (SLWNAGTSV; listed as Homo sapiens) [compound 262]
“+++” (≥50 = +++)	263 (SQWEDIHVV; listed as Homo sapiens) [compound 263]
“+” (≥10% = +)	98 (SLIKYFLFV; listed as Homo sapiens) [compound 98]
“++” (≥20% = ++)	67 (GLDDVTVEV; listed as Homo sapiens) [compound 67]
“+++” (≥50 = +++)	280 (YTLDSLYWSV; listed as Homo sapiens) [compound 280]
“+++” (≥50 = +++)	12 (ALGEDEITL; listed as Homo sapiens) [compound 12]
“++” (≥20% = ++)	233 (GIIDINVRL; listed as Homo sapiens) [compound 233]
“+++” (≥50 = +++)	148 (SIVASLITV; listed as Homo sapiens) [compound 148]
“+++” (≥50 = +++)	170 (TLTFRVETV; listed as Homo sapiens) [compound 170]
“++” (≥20% = ++)	75 (GLSIFAQDLRL; listed as Homo sapiens) [compound 75]
“++” (≥20% = ++)	247 (KLKDRLPSI; listed as Homo sapiens) [compound 247]
“+++” (≥50 = +++)	191 (YIFDGSDGGV; listed as Homo sapiens) [compound 191]
“+++” (≥50 = +++)	344 (VLAFENPQV; listed as Homo sapiens) [compound 344]
